Laboratory results published in US20240287161A1.

How the values were obtained:
[1] = molecular target: Authentic CoV2 (SARS-CoV-2 JPN/TY/WK-521)
[2] = molecular target: SARS-CoV2 S protein on VSV pseudovirus (SARS-CoV-2) (UniProt P0DTC2)
[3] = molecular target: SARS-CoV-2 spike receptor-binding domain (RBD, amino acids 322 to 536), histidine-tagged (Example 2) (SARS-CoV-2) (UniProt P0DTC2)

Substance | IC50, authentic virus neutralization [1] [µg/mL] | IC50, pseudovirus neutralization [2] [µg/mL] | EC50 [3] [µg/mL]
REGN10987 (antibody) | 0.134 | 0.0416 | 3.3
REGN10933 (antibody) | 0.0381 | 0.0089 | 0.194
